According to the supplement of paper PMC11865577:

How the values were obtained:
Experiment in all cases: pull-down binding Z-score (relative to library population); higher = stronger binding
[1] = test system: TO-N3-2 (biotin conjugate); settings: RNA library: Library-2
Summary of the method: (§1)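 The RNA library, end-labelled with Cy5 or Cy3, was heat-folded in phosphate/NaCl/KCl buffer, and 1 μg was incubated at 25 °C for 60 min with streptavidin beads carrying 100 pmol of biotin-conjugated small molecule. Hot SDS released the bound RNA, which was then hybridised to a DNA barcode microarray for 20 h at 55.5 °C. For scoring binding, signal from beads alone was subtracted, replicate barcoded probes were averaged after discarding the highest and lowest, and each value was turned into a Z-score from the library mean and standard deviation.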

[2] = test system: TO-3-N3 (biotin conjugate); settings: RNA library: Library-2
Summary of the method: as §1

[3] = test system: G-clamp-N3 (biotin conjugate); settings: RNA library: Library-1 (pre-miRNA loops + repeats)
Summary of the method: as §1

TO-N3 (biotin conjugate) = settings: RNA library: Library-2
Summary of the method: as §1

[4] = test system: TO-3-N3-2 (biotin conjugate); settings: RNA library: Library-2
Summary of the method: as §1

Row | Sequence | pull-down binding Z-score [1] | pull-down binding Z-score [2] | pull-down binding Z-score [3] | pull-down binding Z-score (TO-N3 (biotin conjugate)) | pull-down binding Z-score [4]
1 | CCACUACCGGUGA [hsa-mir-4658] | -0.288 | -0.207 | -0.573 | -0.127 | -0.309
2 | CCACUGGGAAUGCUCCCUGAGGACGUUAUAUGAGUG [hsa-mir-4319] | 0.872 | 0.544 | 0.953 | 0.802 | 0.399
3 | CCAGGCCACAUAAUGAGCCAAA [hsa-mir-6771] | 0.607 | 0.665 | -1.04 | 0.899 | 0.198
4 | CCAGGCCCCACGGAGAACCAGGGCACCUGG [hsa-mir-8058] | 0.492 | -0.288 | 0.303 | -0.188 | -0.353
5 | CCAGGUUCCAUGUGAUGCUGAA [hsa-mir-6806] | 0.575 | -0.162 | 0.154 | 0.316 | 0.299
6 | CCAGUGCUGGGCUCAGACCCUGG [hsa-mir-150] | 0.701 | -0.0352 | 0.197 | 0.0645 | -0.226
7 | CCAGUGGUUUUCCUUGACUGUG [hsa-mir-298] | 0.0607 | -0.421 | 1.54 | -0.416 | -0.472
8 | CCAUAAGCUGUCUAAAACUUCG [hsa-mir-4513] | -0.0485 | -0.354 | -1.21 | -0.327 | -0.153
9 | CCAUACAAUAUUUGG [hsa-mir-1302-1] | -1.09 | -0.642 | -1.2 | -0.898 | -0.406
10 | CCAUCAAGCCCCACCAGAAGGUGGAGGCCCAGGUGAG [hsa-mir-4721] | 0.864 | 0.105 | -1.36 | 0.16 | -0.479
11 | CCAUGCAACAUUUGG [hsa-mir-1302-4] | -0.696 | -0.262 | 0.29 | -0.359 | -0.327
12 | CCAUGCUGUUUAAGCCUAGCAUAG [hsa-mir-4423] | 0.476 | 0.0223 | -0.374 | 0.208 | -0.16
13 | CCAUGGGGGCCUUGCUGUGU [hsa-mir-6808] | 1.04 | 1.05 | 1.56 | 1.28 | 0.335
14 | CCAUGGUGUGCUCUGAUCCCCCUGUGG [hsa-mir-6848] | 0.49 | 0.35 | -0.373 | 0.592 | 0.0413
15 | CCAUGUAAUCUUUGG [hsa-mir-1302-5] | -0.0743 | 0.507 | -0.454 | 0.454 | 0.112
16 | CCAUGUGAGUGAAGCCUGAUCAUCAUGUG [hsa-mir-8070] | 0.588 | -0.67 | -0.0843 | -0.232 | -0.318
17 | CCAUGUGGUUGCGAGGUAUGAGUAAAACAUGG [hsa-mir-218-1] | 0.275 | -0.697 | -0.319 | -0.567 | -0.174
18 | CCAUUAUUGCUACUGUUCAGCAGGUGCUGCUGGUGGUGAUGG [hsa-mir-1260b] | -0.182 | 0.0654 | -0.182 | 0.244 | -0.25
19 | CCAUUAUUUUUAAUAAUUAUAAUAAUGG [hsa-mir-548s] | -1.2 | 0.0929 | 0.705 | -0.233 | -0.237

Row | Sequence | pull-down binding Z-score [1] | pull-down binding Z-score [2] | pull-down binding Z-score [3] | pull-down binding Z-score (TO-N3 (biotin conjugate)) | pull-down binding Z-score [4]
20 | CCAUUUACUUGAACCUUUAGGAGUGA [hsa-mir-489] | 0.625 | 0.389 | -0.68 | 0.319 | -0.05
21 | CCCAAACUUGGAGCACUUGACCUUUGGC [hsa-mir-4687] | 0.804 | 0.611 | -1.02 | 0.815 | 0.268
22 | CCCAAGCAGGCUUUGUGUGAGCAGUGAGGCUAUUUAUUCACUUGGGUGCGAGCUCACACGAAGCCUGCUUGGG [hsa-mir-6839] | 0.665 | 0.33 | 1.44 | 0.551 | 0.815
23 | CCCACCAUGUACCAGUGGG [hsa-mir-4422] | -0.708 | -0.343 | -1.07 | -0.813 | -0.535
24 | CCCACCCUGAGUUUUGGUGGG [hsa-mir-6508] | -1.22 | -0.066 | -0.873 | -0.245 | -0.26
25 | CCCACCUCCAGCAUUGGG [hsa-mir-1267] | -0.466 | -0.458 | -0.68 | -0.663 | -0.393
26 | CCCACGGCCCUUGUCAGUGUG [hsa-mir-3190] | 0.517 | 0.791 | -1.69 | 0.809 | -0.14
27 | CCCACGUCGCAUGCGCCCCGGGAAAGCGUGGG [hsa-mir-3180-1_3180-3_3180-2] | 0.515 | 0.614 | 1.94 | 0.682 | -0.158
28 | CCCACUCCAAAGUUCACAGAAUGGGUGG [hsa-mir-541] | 1.15 | 2.05 | 0.626 | 1.8 | 0.837
29 | CCCACUUCCUGGA [hsa-mir-4260] | -0.0316 | -0.513 | -0.562 | -0.494 | -0.529
30 | CCCAGAGAAAGCCUGAACGUUGGG [hsa-mir-585] | 0.386 | -0.148 | -0.188 | 0.119 | 0.0232
31 | CCCAGCCUUCCAGAGUUGGUGCCAGG [hsa-mir-4476] | 1.11 | 0.892 | -0.593 | 1.14 | 0.0973
32 | CCCAGCCUUGGCGUUCAGGUGCUGAG [hsa-mir-3150b] | 0.723 | -0.0824 | -0.3 | -0.022 | -0.23
33 | CCCAGCUUUGUGACUGUAAGUGUUGGA [hsa-mir-184] | 0.734 | 0.669 | 0.351 | 0.723 | 0.088
34 | CCCAUAAGGGUCGAAUGGG [hsa-mir-4713] | 0.0587 | 0.401 | -0.205 | 0.272 | -0.0623
35 | CCCAUAUAAUAUUAGGGG [hsa-mir-4483] | -0.667 | -0.469 | 2.5 | -0.783 | 0.176
36 | CCCAUAUGAACAUACAAUGCUAUGGA [hsa-mir-1-2] | -0.206 | -0.62 | -0.76 | -0.569 | -0.224
37 | CCCAUAUGGACCUGCUAAGCUAUGGA [hsa-mir-1-1] | 0.361 | -0.0116 | -0.475 | 0.289 | -0.0364
